assay: yeast display, Sf9 membrane polyspecificity reagent, FACS + sequencing; frameworks hold sequencing errors
Outline: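 Synthetic nanobody libraries on Saccharomyces cerevisiae BJ5465 were galactose-induced for 36–48 hours, stained 1 hour at 4 °C with 10% biotinylated, detergent-solubilized Sf9 membrane reagent and enriched on streptavidin microbeads. FACS then separated cells into low and high (top ~1%) gates by anti-HA (expression) and streptavidin (reagent binding) fluorescence. Genes were colony-PCR amplified, MiSeq 2 × 250 sequenced and CDR-length filtered. A clone's polyreactivity label is that of its gate of origin.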

Sequence	polyreactivity (PSR sort gate)
QVQLQESGGGLVQVGGSLRLSCAASGTIFNYGFLGRNRQAPGKERELVASINLGGITNYADSVKGRFTISRDNAKNTVYLQMISLKPEDTAVYYCAAYVVTGQNYGYWGQGTQVTVSS	low polyreactivity
QVQLQESGGGLVQVGGSQRLSCAASGNIFYNYAMVWYRNAQGKEREFDATIKNGTSINYADSVKGRFTISRDNAKNTVYLQMNSLTPEDTAVYYCAADLSWTDNLFYWGQGTQVTVSS	low polyreactivity
QVQLQESGGGMVLAGGSLRLSCSASGTISVYGTMGWYRQAPGKEREFVATIDPGTHTNYADSVKDRFTISRDNAKNTVYLKMNSLKPEVTAVYSCAVEAGSDWPYRYWGQGTQVTVSS	low polyreactivity
QVQLQESGGGMVQAGGSLRLSSAASGYISWADYMGWYRQAPGKERELVAGIGYGSTTYYADSVKGRFTISRDNAKNTAYLQMNSLKPEDTAVYYCAVGCYRDTAYKYWGQGTQVTVSS	low polyreactivity
QVQLQESGGGPVLAGGSLRLSCAASGTIFVRLDMGWYRQAPGKEREFVATIGSASSTYYADSVKGSFTISRDNVKNTVYLQMNSLKPEDTAVYYCAVSAAEQSRHYYWDQGTQVTVSS	low polyreactivity
QVQLQESGGGQVQAGGSLRLSCAASGTIFLYAFMAWYRQAPGKEPKLVAAIDVGTTTKYADSVKGRFTISRDNAKNTVYLQMNSLKPEDTAVYYCAAYLCYLDDLGYWGQGTQVTVSS	low polyreactivity
QVQLQESGGLVQAGCLRLSCAASGSVSYHEAMGWYRQAPGKERELVATISFGANTNYADSVKGRFTISRDNAKNTVYLQMNSLKPEDTAVYYCAAESLFDDYYGYWGQGTQVTVSS	low polyreactivity
QVQLQESGSGLFQAGGSLRQSCAASGAIFPAYLMGWYRQAPGKERELVAGISYGSITYCADSVKGRFNISRDNAKNTVYLKMNSLKPEDTAVFGYWGQGTQVTVSS	low polyreactivity
QVQLQESGSGLVQAGGSLRLSCAASGAIFPAYLMGWYRQPPGKERELVAGISYGSITYCADSVKGRFNISRDNAKNTVYLQMNSLKPEDTAVYYCAVWRPGGDEYYYWGQGTQVTVSS	low polyreactivity
QVQLQESGVCLVQAGGSPRLSCAASDNIFPDSVMCWYRQAPGKERELVATIGFGATTNYADSVKGRFTISRDNAKNTVYLQMNSLKPEDTAVYYCAADPLNYEYFCYWGQGTQVTVSS	low polyreactivity
QVQLQESGVGLVQAGGSLRLSCAASGSISAVGAMGCYRQAPGQEREFAASVNWGTNTNYADSVKGRFTISRDNAKNTLYLQMNSLKPEDTAVYYCAVLPDWETRHDYWGHGTQVTVSS	low polyreactivity
QVQLQESRGGLVQAGGSLRLSCAASGYISLAQTIGWYRQAPGKEREFVASIALGSSTYYTDSVKGSFTISRDNAKTTVYLQMISLQAEDTAVYYCAARVGASYAHDFWGQGTQVTVSS	low polyreactivity
QVQLQESRGGLVQVGGSQRLSCAASGNIFYNYAMGWYRHANGKEREFDATINHGTSINYADSVKGRFTISRDNAKNTLYLQMNSLKPEDTAVSYCAADLSWTDNLFYWGQGTQVTVTS	low polyreactivity
QVQLQESSGGLVQAGGSLRMGCAASGTIFHFHIMGWYRPAPGKEREFVAAISYGTSTYYADSVKGRFTISRDNAKNTVYLQMNSQKPEDTAVYYCAVYDYLEVYCWYWGQGTQVNVSS	low polyreactivity
QVQLQESSGGLVQAGGSLRMSCAASGTNFHFHIMGWYRQAPGKEREFVAAISYGTSTYYADSVKGRFTISRDNAKNTVYLQMNSQKPEDTAVYYCAVYDYLEVYCWYWGQGTQVTVSS	low polyreactivity
QVQLQETGGGLFQAGVSLRLSCATSGSIFWGNAMGWYRQSPGKDRELVAAISWGGGRTYYADSVKGRFTISRDNAKITVYLQINSLKPEDTAVYSCNTRYPYVVSTGYDYWGQGTQVTVSS	high polyreactivity
QVQLQGSGGGLVQAGGSLRLSCAASGYIFQNVPMGWNRQAPGKERELVAGIDNGTSTNYADSVNGRFTISRDNAKKTVYLQMNSLKPEDTAVYYCAAAGQADNTLGYWGQGTQVTVSS	low polyreactivity
QVQLQQSGDGLVQAVGSLRLSCAPSGSLSGYYSMGWYREAPGKVRELVAGIDAFGSSTNYADCVIGRFTISRDKATNTVYLQMKSLKPEDTAVYYCAARPDGVRLFSYWGQGTQVTESS	low polyreactivity
QVQLQVSGGDLVQAGGSLRLSCAASGTINGLTSMGWYRQAPGKEREFVAAITDGGYTNYADSVKGRFTISRDNAKNTVYLQMISLKPEDTAVYYCAVLFSDDAYYAYWGQGTQVTVSS	low polyreactivity
QVQLQVSGGGLVQAGGSLRLSCAASGSIFLTSEMGWYRQAPCKERELVAANATGTSTNYADSVKGRFTISRDNAKNTVYLQMKSLKPEDTSVYYCAAGTQAHAFVVRPIEMDYWGQGTQVTVSS	low polyreactivity
QVQLVASGGGLVLAGGILRLSCAASGSTFVSNALGWYRLAPGKERALVAVITFRGGTTYYADSVKGRFTISRDNAKNTVYLQMNSLKPEDTAGYYCAARSYQYSYSFYWGQGTQVTVSS	high polyreactivity

Sequence	polyreactivity (PSR sort gate)
QVQLVASGGGLVQAGGSLLLSCAASGRIFAEYAMGWSRQAPGKERELVAVIDGTGGSTYYADSVKGRFTISRDNEKNTVYLLMNSLNPEDTAVYYCAATGRGSGRRFNYWGQGTQVTVSS	high polyreactivity
QVQLVASGGGLVQAGGSLRLSCAASGRIFSSNAMGWSRQAPGKEWELVAAITKSGGGTYYADSVKGRFTISRDNAKNTVYLQLNSLKPEDTAVYYCAKGQYRSSGYDYWGQGTQVTVSS	low polyreactivity
QVQLVASGGGLVQAGGSLRLSCAASGRTFYEYSIGWYRQAPGKERELDAGITSGGSTNYSDTVKGRFTISRDNATNPVFLLMNRLNPEDTAVYYCAAAYWGYEYDYWGQGTQVTLSS	low polyreactivity
QVQLVASGGGLVQAGGSLRLSCAASGSIFRFNPMGWSRHEPGKERELVAAISQSGSSTYYADSLKGRFTISRDNAKNTVYLQMNSLKPEDTAVYYCNVYTYQPYRMDLWRQGTQVTVSS	high polyreactivity
QVQLVASGGGLVQAGGSLRLSCAASGSTFRVNVMGWYRQAPGIERELVADITTSGGSTYYADSVKGRFTISRDNAMITVYLQINSLTPEDTAVYYCNTTYQSGWGPDMDYWGQGTQVTVSS	low polyreactivity
QVQLVASGGGLVQAGGSLRLSCAASGTTLYYYAKGWYRQAPGKEREMGAYISSSGDRTYYADSVNGRFTISRDNAKNTVDLQMNSLKPEDTAVYYCNAYLYVSGLDYATYSLGYWGQGTQVTVSS	low polyreactivity
QVQLVASGGGLVQAGGSLRLTCAASGITSWYYAMGWYRQAPGKERELVAAITSDGSTYYADSVKGRFTISRDNAKNTVYLQMNSLNPEDTAVYYCAAERDYWIPDSYLVVMDYWGQGTQVTVSS	low polyreactivity
QVQLVDSAGGLVQAGGSLRLSCAAYGRTNYLYSMGWYRQAPGKERELVAAIRTGDGSTYYADSVKGRFTISRDNAKNTVYLQMISLKPEDTAVYYCAARVGKRYNWGQGTQVTVSS	high polyreactivity
QVQLVDSGGCLVQAGGSLRLSCAASGSTFPTYAMGWYRQAPGKERELVAAITWSGGSTYYADSVKGRFTISRDNAKNTVYLQMNSLKPEDTAVYYCADSAYVQPYDYWGQGTQVTVSS	high polyreactivity
QVQLVDSGGGFFQAGGSLRLSCAPSGITFVVYAMGWYRQAPGKERDLVAAITAGGSTYADSVKGRFTISRDNAKTTVYLQMNSLKPEDTAVYDCNTGLYLYVGLGDHDYWGQGTQVTVSS	low polyreactivity
QVQLVDSGGGLDQAGGSLRLSCAASGSIFVSEYDMVWYIQAPGKERELVARSRWSSGSTYYADSVKGRFSISRDYAKNTVYVQMNSLKPEDTAVYYCNTVRTRERTDYDYWGQGTQVTVSS	low polyreactivity
QVQLVDSGGGLDQAGGSLRLSCAASGSTFYYNAMGWYRQPPGKARELVARISRSGGSTYADSVKGRFTISRDNAMNTVYLQMNSLKPEDTAVYYCNADADGTPEFTSYSVRYDYWGQGSQVTVSS	low polyreactivity
QVQLVDSGGGLLQAGGSLRLSCAASGNIFGRYAMGWYRQAPGKEREFVATITYSGGSTYYADSVKGRFTISRDNAKNTVYLQMNSLKPEDTAVYYCAARVGRPSLVAAKYDYWGQGTQVTVSS	high polyreactivity
QVQLVDSGGGLLQAGGSLRLSCAASGRTCRGYAMGWYRQAPGKEWELVAAITSGGSTNYADSVKGRFTISRDNATNTVSIQMNRLKPEETAVYYCAAGRSTGQYRYYFWGLGTQVTVSS	high polyreactivity
QVQLVDSGGGLLQAGGSLRLSCAASGSTFVAYAMGWYRQAPGKEREFVAGISSSTGGTRYADSVKGRFTISRDNAKNTVYLQMNSLKPEDSAVYYCAADLYFYYVWIRVYWGQGTQVTVSS	low polyreactivity
QVQLVDSGGGLVLAGGSLRLSCAASGRTFAYYVMGWYREAPGKERELVAAISGRGGRTNYADSVKGRFTISRDNANNTVFLQMNSLKPEDTAVYYFAADLKLGTFNYWGQGTQVTVSS	high polyreactivity
QVQLVDSGGGLVQAGCSLRLSCPASGGTFGYYAMGWYRQAPGKERELVAGINYSGGRTYYADSVKGRFTISRDNAMNTVYLKMDSLKPEDTAVYYCAAQAYVGYRGYDYWVQGTQVTVSS	high polyreactivity
QVQLVDSGGGLVQAGGILSLSCASSGRTFYRYAMGWYRQAPGKERELVAAISATGCSTYYADSVKGRFTISRDNEKNTGYFQMNIMKPEDSAVDYCARGGTTLYWGQGTQLTVSS	high polyreactivity
QVQLVDSGGGLVQAGGRLLLSCSDSGINIPYYAMGWYRQAPGKERELVASISYDGTSSYYADSVKGRFTISRDNAKNTVYLHLNSLKPEDTAVYYCAPVPWWPRASYSMDYWGQGTQVTLSS	low polyreactivity
QVQLVDSGGGLVQAGGRLRLSCAASGFIIDWNTKGWYRQAPGKERELVAAITESSGSTYYADSVKGRFTISRDNAKNTVYLLMNSLKPVDTAVYYCGAELDVSVCFVSRFHFDYWGQGTQVTVSS	low polyreactivity

Source: the nanobody polyreactivity screen of Harvey et al. (2022)
